Biological target: the molecule itself
Experiment: cross-linking

Row | Protein | stoichiometry N
1 | MGNASFGSKEQKLLKRLRLLPALLILRAFKPHRK (peptide, UniProt O95661 1-34, looked up) [DIRAS3 N-terminal extension peptide, wild type (NTEwt)] | 2
2 | MANASFGSKEQKLLKRLRLLPALLILRAFKPHRK (peptide, UniProt O95661 1-34, looked up) [DIRAS3 NTE peptide with mutation of the glycine myristoylation site (NTEG2A)] | 2

Source: publication PMC10616557 (iScience, 2023)
